This is an account of results in IntAct's records for PubMed 23686307.

This assay has as its target tf65_human RELA (UniProt Q04206).

For “Bromodomain-containing protein 4 (Homo sapiens) (from UniProt O60885) Y139A;N140A”, the “effect of a mutation on the interaction” value is “decreasing interaction”. On to “Bromodomain-containing protein 4 (Homo sapiens) (from UniProt O60885) Y139A;N140A;Y432A;N433A”, for which the “effect of a mutation on the interaction” value was “disrupting interaction”. As for “Bromodomain-containing protein 4 (Homo sapiens) (from UniProt O60885) Y432A;N433A”, the “effect of a mutation on the interaction” value is on record as “decreasing interaction”.
